Results reported in patent US7754689B2, “Finger-1 peptide analogs of the TGF-β superfamily” (Wyeth LLC, priority 2006, dated 2010).

Key:
Assay type in all cases: binding
BMP-3 and BMP-12 = experiment: HPLC columns of BMP affinity resins loaded with BMP-3 and BMP-12; details: columns loaded with BMP-3 and BMP-12
Text: These columns were used loaded with BMP-3 and BMP-12. […] In some cases, size exclusion or reverse phase chromatography techniques were employed to enhance purification.

BMP-12 = target: T1, BMP-12 (Homo sapiens, UniProt Q7Z4P5); experiment: Affinity column chromatography, capture and elution of BMP-12
T1 sequence (Q7Z4P5 322-450): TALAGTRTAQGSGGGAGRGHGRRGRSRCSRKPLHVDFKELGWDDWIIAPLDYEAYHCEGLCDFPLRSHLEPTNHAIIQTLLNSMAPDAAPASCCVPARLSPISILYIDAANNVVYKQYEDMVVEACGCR
Description: (§1) BMP-12 was immobilized on NHS-activated Sepharose™ beads at a ratio of about 20 mg:4 mL and the resulting media combined with water or neutral saline buffer to prepare a column. CHO-conditioned media augmented with 1.2 M NaCl was loaded onto the column. In some cases, the media was preconcentrated with respect to BMP before loading. The column was washed with 15 CV (column volumes) of 1.2 M NaCl in 40 mM Na2HPO4 at pH 7.2, followed by 0.5 M arginine/0.5 M NaCl in 20 mM Tris at pH 7.5 (15 CV) and a low salt wash (50 mM ammonium acetate at pH 7, 15 CV). […] Finally, the column was eluted with 5CV of the acetic acid solution with 6M guanidine hydrochloride (GuHCl).
BMP-12 was loaded and eluted from a BMP-12 affinity column as in Example 1.
BMP-12 was purified using a column prepared with the BMP-12 wild type peptide described in Example 7.

BMP-3 = target: T2, BMP-3 (Homo sapiens, UniProt P12645); experiment: Affinity column chromatography, capture and elution of BMP-3
T2 construct: a propeptide fragment copurifies along with the mature protein; made in house; host or cells: CHO cells (conditioned medium)
T2 sequence (P12645 363-472): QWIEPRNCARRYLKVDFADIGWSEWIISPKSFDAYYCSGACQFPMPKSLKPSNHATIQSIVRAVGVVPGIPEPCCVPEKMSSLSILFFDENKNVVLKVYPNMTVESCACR
Description: as §1
The eluate was analyzed using HPLC.
4 mL of the resulting resin (1.6×2.0 cm) was used to prepare a column. The column was loaded with BMP-3 and eluted as in Example 1.

[1] = washes, then gradient to 50 mM acetic acid pH 3, then 6M GuHCl

capture of BMP-12 by column with immobilized ligand (BMP-12; high salt / high ionic strength load): effectively captured | elution of BMP-12 from column with immobilized ligand (BMP-12; [1]): eluted with acetic acid and guanidine | capture of BMP-3 by column with immobilized ligand (BMP-3; CHO-conditioned media with 1.2 M NaCl (high salt) load): effectively captured | elution of BMP-3 from column with immobilized ligand (BMP-3; [1]): eluted with acetic acid
B1: BMP-12: Bone Morphogenic Protein, member of the TGF-β superfamily; tested in solution and immobilized on Sepharose beads as affinity ligand (protein)
chain: TALAGTRTAQGSGGGAGRGHGRRGRSRCSRKPLHVDFKELGWDDWIIAPLDYEAYHCEGLCDFPLRSHLEPTNHAIIQTLLNSMAPDAAPASCCVPARLSPISILYIDAANNVVYKQYEDMVVEACGCR
effectiveness as affinity ligand for reverse phase HPLC (BMP-3 and BMP-12): equally effective
